Reference: article PMC6297234, “aPKC controls endothelial growth by modulating c-Myc via FoxO1 DNA-binding ability”

Target: GST-FoxO1 DBD S218D (Homo sapiens, UniProt Q12778 151-266, S218D)
Experiment: EMSA; 1 µM protein, 1 nM DNA, 1 ng/mL poly dI-dC; 20 mM Tris pH 8.0, 50 mM KCl, 5% glycerol, 2 mM DTT, 0.2 mM EDTA, 2 mM MgCl2, 0.1 mg/mL BSA, 1 ng/mL poly dI-dC; RT 30 min; 6% gel in 0.5X TBE at 4 °C
Details: protein: recombinant; tags: GST (pDEST15, N-terminal); blunt

Chain of GST-FoxO1 DBD S218D (Q12778 151-266 S218D): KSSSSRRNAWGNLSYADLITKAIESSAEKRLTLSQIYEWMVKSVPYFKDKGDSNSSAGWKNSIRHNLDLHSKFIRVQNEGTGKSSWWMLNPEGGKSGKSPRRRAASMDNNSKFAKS

B1: FoxO DBE duplex (dsDNA)
DNA 1: CAAAATGTAAACAAGA
DNA 2: TCTTGTTTACATTTTG
binding result: no binding
